System: HuR
Assay: SPR
Settings: SPR: 25 mM Tris pH 7.5, 100 mM KCl, 7 mM b-mercaptoethanol, 10% glycerol, 25 C, UV crosslinking: 5 mM HEPES pH 7.6, 25 mM KCl, 2 mM MgCl2, 3.8% glycerol

SARS-CoV-2 5'-UTR WT, biotin (SPR) was tested, and the Kd was 32.5 nM.

From publication PMC13185593
